This is an account of results in patent US8143228B2, “Agents capable of downregulating an MSF-A dependent HIF-1α and use thereof in cancer treatment” (Medical Research Fund of Tel Aviv Sourasky Medical Center, priority 2004, dated 2012).

Assay type in all cases: cell-based
The subject of one assay is HIF-1 target genes. The assay can be described thus: Semi-quantitative RT-PCR of HIF-1 target genes. The protocol: FIGS. 12a-f are RT-PCR analyses depicting HIF-1α mediated activation of various genes in cells transfected with the expression vector alone (Neo) or the MSF-A expression vector (MSF-A). Total RNA was isolated from PC-3-Neo and PC-3-MSF-A cells grown under normoxic (lanes 1 and 2) and hypoxic (lanes 3 and 4) conditions. Semi-quantitative RT-PCR analysis was performed using VEGF, Glut-1, ET-1, CA-IX, HIF-1α and β-actin primers (SEQ ID NOs:4200-4211 as described under General Materials and Experimental Methods). Lane 1—Neo, lane 2—MSF-A, lane 3—Neo, lane 4—MSF-A, lane 5—water (negative control).
Isolation and analysis of RNA—Total RNA was extracted from cells by using RNeasy Mini Kit (Qiagen Inc., Valencia, Calif.) according to the manufacturer's protocol. Total RNA from xenograft-derived tumors, which were frozen in liquid N2 immediately after dissection, was prepared using TRI REAGENT (Sigma-Aldrich Co., Saint Louis, Mo.) following the manufacturer's instructions. One μg total RNA was reverse transcribed into cDNA using Reverse-iT 1st Strand Synthesis Kit (ABgene, Epsom, United Kingdom) using anchored oligo dT as first strand primer. […] Semi-quantitative RT-PCR was performed using […] as an internal control to normalize gene expression for the PCR templates. […]

The subject of assay [1] is PC-3 cells. The assay can be described thus: Plating efficiency assay. As to conditions: PC-3-MSF-A cells; PC-3-Neo 16.8%, p<0.001. The procedure:
Plating Efficiency assay—PC-3-Neo and PC-3-MSF-A cells were cultured in 100 mm-diameter plate (1000 cells/plate) and incubated to allow colony formation. The cultures were monitored on a daily basis and when colonies were visible (approximately after 2 weeks) cells were fixed and stained with 90% EtOH, 5% Acetic acid, 0.01% Coomassie brilliant blue (Sigma-Aldrich, Saint Louis, Mo.). Plating was done in triplicates. Colonies containing ≧20 cells were counted. Plating efficiency (%) was calculated as number of colonies formed/number of cells plated×100.

In assay [2] the test system is PC-3 cells. The experiment in a line: Soft agar foci assay. The note with it: PC-3-MSF-A vs PC-3-Neo cells, 4 weeks, normoxia. The protocol:
FIGS. 14a-g are microscopic photographs (FIGS. 14a-f) and a graph depicting the effect of MSF-A over-expression on colony formation and growth (FIG. 14g). PC-3-Neo and PC-3-MSF-A cells were grown for 4 weeks in soft agar under normoxic conditions. Colonies were observed and counted. FIGS. 14a, c, and e—representative colonies from each plate seeded with PC-3-Neo cells; FIGS. 14b, d, and f—representative colonies from each plate seeded with PC-3-MSF-A cells; FIG. 14g—quantitative analysis of colony number from each cell type. Columns=means; bars=SD; n=3.
Soft Agar Foci assay—The assay tests the anchorage-independent growth of the cell in soft agar. Suspensions of PC-3-Neo or PC-3-MSF-A cells in 0.22% soft agar were poured on 35 mm-diameter plate (5000 cells/plate) pre-cast with 0.5% soft agar and were cultured for 4 weeks. Colonies (≧20 cells) were counted.

B1: MSF-A: myeloid/lymphoid leukemia septin-like fusion protein A (SEQ ID NO:3), over-expressed from the p3xFlag-MSF-A vector (protein, listed as Homo sapiens)
chain: MKKSYSGGTRTSSGRLRRLGDSSGPALKRSFEVEEVETPNSTPPRRVQTPLLRATVASSTQKFQDLGVKNSEPSARHVDSLSQRSPKASLRRVELSGPKAAEPVSRRTELSIDISSKQVENAGAIGPSRFGLKRAEVLGHKTPEPAPRRTEITIVKPQESAHRRMEPPASKVPEVPTAPATDAAPKRVEIQMPKPAEAPTAPSPAQTLENSEPAPVSQLQSRLEPKPQPPVAEATPRSQEATEAAPSCVGDMADTPRDAGLKQAPASRNEKAPVDFGYVGIDSILEQMRRKAMKQGFEFNIMVVGQSGLGKSTLINTLFKSKISRKSVQPTSEERIPKTIEIKSITHDIEEKGVRMKLTVIDTPGFGDHINNENCWQPIMKFINDQYEKYLQEEVNINRKKRIPDTRVHCCLYFIPATGHSLRPLDIEFMKRLSKVVNIVPVIAKADTLTLEERVHFKQRITADLLSNGIDVYPQKEFDEDSEDRLVNEKFREMIPFAVVGSDHEYQVNGKRILGRKTKWGTIEVENTTHCEFAYLRDLLIRTHMQNIKDITSSIHFEAYRVKRLNEGSSAMANGVEEKEPEAPEM
modifications: 3xFlag tag
Regarding B1, the “HIF-1α mRNA level” value with HIF-1 target genes (PC-3-MSF-A and PC-3-Neo cells) is listed as “unchanged”. In addition, in the assay on HIF-1 target genes (PC-3-MSF-A vs PC-3-Neo cells), the “VEGF mRNA levels” value is “significantly higher”. The molecule also registered a plating efficiency in the assay with PC-3 cells [1] of 49.3%. Also, the “colony formation in soft agar” value with PC-3 cells [2] is given as “significantly more colonies”.
